B1: H4H18457P2 (antibody, human IgG4, V domains shown)
VH: EVQLVESGGSVVRPGESLRLSCAASGFTFDDYGMSWVRQAPGKGLEWVSGISWNGGITVYADSVKGRFTVSRDNAKNSLYLQMNSLRAEDTALYHCARARYGGADYWGQGTLVTVSS
VL: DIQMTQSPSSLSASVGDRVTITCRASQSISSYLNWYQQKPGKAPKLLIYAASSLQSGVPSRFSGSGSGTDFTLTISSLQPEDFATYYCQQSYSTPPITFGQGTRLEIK
notes: H4H prefix: human IgG4 Fc
B2: H4H17322P2 (antibody, human IgG4, V domains shown)
VH: QLQLQESGPGLVKPSETLSLTCTVSGASISSSRFYGGWIRQPPGKGLEWIGDIYYSGNTYYNPSLQSRVTISVDTSKNQFSLKLSSVTAADTAVYYCARHLMITFGGLIVEGFDIWGQGTMVTVSS
VL: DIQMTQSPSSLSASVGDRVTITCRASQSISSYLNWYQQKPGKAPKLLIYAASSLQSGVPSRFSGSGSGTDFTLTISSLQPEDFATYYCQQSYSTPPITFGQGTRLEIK
notes: H4H prefix: human IgG4 Fc
B3: H4H18464P2 (antibody, human IgG4, V domains shown)
VH: QVQLVQSGPEVKKPGASVKVSCKGSGYTFSWYGISWIRQAPGHGLEWMGWISASSGNTRFAQKVQGRLTMTTDTSTSTAYMELRSLRSDDTAVYYCARTGTRPFDYWGQGTLVTVSS
VL: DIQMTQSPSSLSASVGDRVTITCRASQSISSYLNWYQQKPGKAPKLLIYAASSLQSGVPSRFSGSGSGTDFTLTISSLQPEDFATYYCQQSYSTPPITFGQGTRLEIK
notes: H4H prefix: human IgG4 Fc
B4: H4H18440P2 (antibody, human IgG4, V domains shown)
VH: QVQLVESGGGMVKPGGSLRLSCAASGFTFSDYYMSWIRQAPGKGLEWISHISITGSTIYYADSVKGRFTISRDNAKNSLYLEMNRLRDEDTAVYYCTRDEPDIVLVRYGMDVWGQGTTVTVSS
VL: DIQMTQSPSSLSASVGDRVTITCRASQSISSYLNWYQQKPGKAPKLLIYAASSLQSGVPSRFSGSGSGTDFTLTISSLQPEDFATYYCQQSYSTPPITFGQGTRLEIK
notes: H4H prefix: human IgG4 Fc
B5: H4H18462P2 (antibody, human IgG4, V domains shown)
VH: EVQLVESGGDLVQPGRSLRLSCAASGFTFSSFAMSWVRQAPGRGLEWVSSLSDSGDNTYYADSVKGRFTISRDNSKNTLYLQMNNLRAEDTAVYYCAKDLFSGWLFHGFDVWGQGTMVTVSS
VL: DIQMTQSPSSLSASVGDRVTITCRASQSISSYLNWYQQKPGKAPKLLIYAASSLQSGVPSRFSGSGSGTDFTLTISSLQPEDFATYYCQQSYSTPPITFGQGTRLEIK
notes: H4H prefix: human IgG4 Fc

These binders were tested against T1, extracellular domain portion of LEPR protein expressed with a C-terminal human Fc tag (human) (assay: competition ELISA, 500 nM Ab, 10 nM hLEPR-hFc binding to coated hLeptin).
T1 construct: Dimeric construct; also called hLEPR.hFc; hLEPR-hFc
Description: These antibody-protein or protein-protein complexes were then incubated for 1.5 hour at room temperature (RT). […] Samples were developed with a TMB solution (BD Biosciences, #555214; substrate A and B mixed at 1:1 ratio as per manufacturer's instructions) to produce a colorimetric reaction and then neutralized with 1M sulfuric acid before measuring absorbance at 450 nm on a Victor X5 plate reader. Data analysis was performed using a sigmoidal dose-response model within Prism™ software (Graph Pad).

% blockade | Binder
4% | B1
13% | B2
-5% | B3
3% | B4
14% | B5

The binders below were run against T2, recombinant rat LEPR extracellular domain expressed with a C-terminal myc-myc-hexahistidine tag (rat, UniProt Q62959 22-839) (assay: SPR, mAb captured, 37 C).
T2 construct: Monomeric construct; also called rLEPR.MMH; rLEPR-MMH
Description: (§1) Equilibrium dissociation constants (KD values) for antigen binding to purified anti-LEPR monoclonal antibodies of the invention were determined using a real-time surface plasmon resonance biosensor using a Biacore 4000 instrument. All binding studies were performed in running buffer containing 10 mM HEPES, 150 mM NaCl, 3 mM EDTA, and 0.05% v/v Surfactant Tween-20, pH 7.4 (HBS-ET running buffer) at 25° C. and 37° C. The Biacore sensor surface was first derivatized by amine coupling with a monoclonal mouse anti-human Fc antibody (GE, # BR-1008-39) to the capture anti-LEPR monoclonal antibodies. The LEPR reagents tested for binding to the anti-LEPR monoclonal antibodies included recombinant human LEPR extracellular domain expressed with a C-terminal myc-myc-hexahistidine tag (hLEPR.MMH; SEQ ID NO:90), recombinant cynomolgus monkey LEPR extracellular domain expressed with a C-terminal myc-myc-hexahistidine tag (mfLEPR.MMH; SEQ ID NO:93), recombinant mouse LEPR extracellular domain expressed with a C-terminal myc-myc-hexahistidine tag (mLEPR.MMH; SEQ ID NO:94), recombinant rat LEPR extracellular domain expressed with a C-terminal myc-myc-hexahistidine tag (rLEPR.MMH; SEQ ID NO:95), and recombinant human LEPR extracellular domain expressed with a C-terminal mouse IgG2a Fc tag (hLEPR.mFc; SEQ ID NO:91). LEPR constructs that include MMH tags are monomeric LEPR constructs, and LEPR constructs including an mFc tag are dimeric LEPR constructs. […] The dissociation of monoclonal antibody bound LEPR reagent was monitored for 10 minutes in HBS-ET running buffer. Kinetic association (10 and dissociation (10 rate constants were determined by fitting the real-time binding sensorgrams to a 1:1 binding model with mass transport limitation using Scrubber 2.0c curve-fitting software. Binding dissociation equilibrium constants (KD) and dissociative half-lives (t½) were calculated from the kinetic rate constants as: […]

T2 sequence (Q62959 other isoform, or with tags, fused parts or gaps): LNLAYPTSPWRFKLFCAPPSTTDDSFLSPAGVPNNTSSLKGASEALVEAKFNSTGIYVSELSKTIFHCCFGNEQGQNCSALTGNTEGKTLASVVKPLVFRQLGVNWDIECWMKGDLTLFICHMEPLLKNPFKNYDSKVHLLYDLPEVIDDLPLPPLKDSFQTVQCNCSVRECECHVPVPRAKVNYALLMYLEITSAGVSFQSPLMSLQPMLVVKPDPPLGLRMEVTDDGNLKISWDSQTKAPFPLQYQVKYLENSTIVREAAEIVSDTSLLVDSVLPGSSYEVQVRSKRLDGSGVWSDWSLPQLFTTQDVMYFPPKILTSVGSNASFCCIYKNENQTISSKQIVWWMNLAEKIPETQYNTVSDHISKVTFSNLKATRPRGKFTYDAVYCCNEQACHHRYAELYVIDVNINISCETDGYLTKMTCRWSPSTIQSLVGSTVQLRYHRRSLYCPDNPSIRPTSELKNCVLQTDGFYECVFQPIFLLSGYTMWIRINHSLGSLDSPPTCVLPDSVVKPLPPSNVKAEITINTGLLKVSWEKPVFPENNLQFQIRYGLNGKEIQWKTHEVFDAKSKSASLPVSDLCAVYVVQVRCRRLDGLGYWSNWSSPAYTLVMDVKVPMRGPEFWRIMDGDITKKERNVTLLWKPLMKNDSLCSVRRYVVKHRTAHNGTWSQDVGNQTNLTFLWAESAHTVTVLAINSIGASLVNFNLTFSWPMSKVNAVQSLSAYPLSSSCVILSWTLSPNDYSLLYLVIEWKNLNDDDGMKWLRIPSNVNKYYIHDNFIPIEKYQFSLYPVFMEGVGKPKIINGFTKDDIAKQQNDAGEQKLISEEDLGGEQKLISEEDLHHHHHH

100 nM rLEPR-MMH Bound (RU) | Kd | koff | kon | t½ | Binder
16 RU | 580 nM | 0.0175 s⁻¹ | 30200 M⁻¹ s⁻¹ | 0.7 min | B1
9 RU | 352 nM | 0.0328 s⁻¹ | 93200 M⁻¹ s⁻¹ | 0.4 min | B2
1 RU |  |  |  |  | B3
0 RU |  |  |  |  | B4

Biological target: T3, recombinant human LEPR extracellular domain expressed with a C-terminal mouse IgG2a Fc tag (human)
T3 construct: Dimeric construct; also called hLEPR.mFc; hLEPR-mFc
T3 chain: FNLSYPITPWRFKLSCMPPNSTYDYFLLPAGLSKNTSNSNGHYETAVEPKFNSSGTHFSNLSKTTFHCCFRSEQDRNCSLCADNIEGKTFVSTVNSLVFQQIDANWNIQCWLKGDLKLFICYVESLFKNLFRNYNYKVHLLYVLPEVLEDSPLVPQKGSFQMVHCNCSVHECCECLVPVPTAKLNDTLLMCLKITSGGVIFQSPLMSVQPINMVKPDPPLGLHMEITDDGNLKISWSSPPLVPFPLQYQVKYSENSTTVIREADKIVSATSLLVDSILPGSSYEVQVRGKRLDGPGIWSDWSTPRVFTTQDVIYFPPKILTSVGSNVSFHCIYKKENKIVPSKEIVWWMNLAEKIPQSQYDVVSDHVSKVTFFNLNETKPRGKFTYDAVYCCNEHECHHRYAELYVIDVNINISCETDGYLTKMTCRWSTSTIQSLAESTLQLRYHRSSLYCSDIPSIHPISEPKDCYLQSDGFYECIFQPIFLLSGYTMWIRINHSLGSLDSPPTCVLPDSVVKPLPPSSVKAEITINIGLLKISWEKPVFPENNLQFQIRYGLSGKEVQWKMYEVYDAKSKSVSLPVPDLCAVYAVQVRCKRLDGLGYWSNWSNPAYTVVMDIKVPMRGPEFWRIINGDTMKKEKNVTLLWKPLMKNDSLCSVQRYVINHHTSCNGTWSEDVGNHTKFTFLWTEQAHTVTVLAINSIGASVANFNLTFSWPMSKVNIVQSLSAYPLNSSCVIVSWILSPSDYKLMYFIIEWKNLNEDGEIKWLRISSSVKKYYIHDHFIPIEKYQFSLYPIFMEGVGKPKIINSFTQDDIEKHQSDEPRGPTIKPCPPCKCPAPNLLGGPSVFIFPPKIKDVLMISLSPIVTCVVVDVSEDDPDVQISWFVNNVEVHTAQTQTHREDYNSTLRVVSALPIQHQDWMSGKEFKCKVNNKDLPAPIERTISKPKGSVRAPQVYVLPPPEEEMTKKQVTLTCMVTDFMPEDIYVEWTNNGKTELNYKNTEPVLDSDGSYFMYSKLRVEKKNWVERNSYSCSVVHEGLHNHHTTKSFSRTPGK
Assay: SPR, mAb captured, 37 C
Description: as §1

100 nM hLEPR-mFc Bound (RU) | Kd | koff | kon | t½ | Binder
166 RU | 1.27 nM | 0.000704 s⁻¹ | 556000 M⁻¹ s⁻¹ | 16 min | B1
105 RU | 3.31 nM | 0.00044 s⁻¹ | 133000 M⁻¹ s⁻¹ | 26 min | B2
105 RU | 1.28 nM | 0.000517 s⁻¹ | 404000 M⁻¹ s⁻¹ | 22 min | B3
181 RU | 0.527 nM | 0.000112 s⁻¹ | 212000 M⁻¹ s⁻¹ | 103 min | B4
84 RU | 4.26 nM | 0.000543 s⁻¹ | 128000 M⁻¹ s⁻¹ | 21 min | B5

Each binder was assayed against T4, recombinant human LEPR extracellular domain expressed with a C-terminal myc-myc-hexahistidine tag (human, UniProt P48357 22-839) (assay: SPR, mAb captured, 37 C).
T4 construct: Monomeric construct; also called hLEPR.MMH; hLEPR-MMH
Description: as §1

100 nM hLEPR-MMH Bound (RU) | Kd | koff | kon | t½ | Binder
108 RU | 24.8 nM | 0.00855 s⁻¹ | 345000 M⁻¹ s⁻¹ | 1.4 min | B1
99 RU | 11.7 nM | 0.000812 s⁻¹ | 69500 M⁻¹ s⁻¹ | 14 min | B2
68 RU | 20.5 nM | 0.00315 s⁻¹ | 154000 M⁻¹ s⁻¹ | 3.7 min | B3
95 RU | 27.3 nM | 0.00173 s⁻¹ | 63400 M⁻¹ s⁻¹ | 7 min | B4
31 RU | 248 nM | 0.0114 s⁻¹ | 45800 M⁻¹ s⁻¹ | 1 min | B5

The binders below were run against T5, recombinant cynomolgus monkey LEPR extracellular domain expressed with a C-terminal myc-myc-hexahistidine tag (cynomolgus monkey, UniProt Q9MYL0 22-837 (rhesus entry)) (assay: SPR, mAb captured, 37 C).
T5 construct: Monomeric construct; also called mfLEPR.MMH; mfLEPR-MMH
Description: as §1

100 nM mfLEPR-MMH Bound (RU) | Kd | koff | kon | t½ | Binder
117 RU | 30 nM | 0.0104 s⁻¹ | 347000 M⁻¹ s⁻¹ | 1.1 min | B1
142 RU | 7.72 nM | 0.0011 s⁻¹ | 143000 M⁻¹ s⁻¹ | 10 min | B2
13 RU | 215 nM | 0.00841 s⁻¹ | 39200 M⁻¹ s⁻¹ | 1.4 min | B3
66 RU | 101 nM | 0.00724 s⁻¹ | 71500 M⁻¹ s⁻¹ | 1.6 min | B4
28 RU | 261 nM | 0.0337 s⁻¹ | 129000 M⁻¹ s⁻¹ | 0.3 min | B5

The binders below were run against T6, recombinant mouse LEPR extracellular domain expressed with a C-terminal myc-myc-hexahistidine tag (mouse, UniProt P48356 22-839) (assay: SPR, mAb captured, 37 C).
T6 construct: Monomeric construct; also called mLEPR.MMH; mLEPR-MMH
Description: as §1

T6 sequence (P48356 other isoform, or with tags, fused parts or gaps): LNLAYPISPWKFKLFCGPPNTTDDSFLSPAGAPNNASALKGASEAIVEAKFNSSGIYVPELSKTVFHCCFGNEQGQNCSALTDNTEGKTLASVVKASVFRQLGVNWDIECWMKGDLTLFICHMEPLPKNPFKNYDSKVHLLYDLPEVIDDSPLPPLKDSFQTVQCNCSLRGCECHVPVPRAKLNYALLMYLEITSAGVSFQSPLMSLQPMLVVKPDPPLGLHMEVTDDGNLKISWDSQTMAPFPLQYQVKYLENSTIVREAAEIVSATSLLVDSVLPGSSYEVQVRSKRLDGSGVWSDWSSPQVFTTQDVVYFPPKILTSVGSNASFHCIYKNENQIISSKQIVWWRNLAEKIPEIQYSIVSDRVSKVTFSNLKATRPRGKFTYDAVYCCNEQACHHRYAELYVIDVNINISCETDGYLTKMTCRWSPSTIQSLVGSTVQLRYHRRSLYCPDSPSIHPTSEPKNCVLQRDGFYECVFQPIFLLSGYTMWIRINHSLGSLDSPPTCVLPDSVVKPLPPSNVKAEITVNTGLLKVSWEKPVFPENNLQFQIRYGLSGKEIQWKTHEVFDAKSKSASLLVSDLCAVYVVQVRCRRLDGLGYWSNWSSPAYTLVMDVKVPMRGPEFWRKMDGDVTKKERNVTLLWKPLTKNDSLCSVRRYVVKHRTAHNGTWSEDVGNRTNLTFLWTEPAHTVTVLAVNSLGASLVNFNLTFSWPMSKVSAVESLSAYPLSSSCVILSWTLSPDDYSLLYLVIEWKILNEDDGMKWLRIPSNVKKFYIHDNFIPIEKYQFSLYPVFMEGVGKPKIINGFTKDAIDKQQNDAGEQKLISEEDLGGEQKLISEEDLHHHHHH

100 nM mLEPR-MMH Bound (RU) | Binder
-1 RU | B1
-1 RU | B2
1 RU | B3
-1 RU | B4
